This note sets out measurements from patent publication US20220256794A1, “TERPENE SYNTHASES AND TRANSPORTERS” (The State of Israel, Ministry of Agriculture & Rural …, priority 2019, published 2022).

The nature of assay [1]: Terpene synthase activity assay with GPP. The class given is biochemical. The settings on record: TPS expressed in E. coli; 10 μM GPP, overnight at 30° C., SPME GC-MS. The protocol: Putative terpene synthase genes were synthesized by the TWIST Co., and cloned into Novagen pET-28a(+) with a 6×His tag at its' N-terminus. The recombinant plasmid was then sequenced for authentication and transformed into BL21(DE3) pLysS and pLysE strains of E. coli (Agilent Technologies) for heterologous expression. An overnight culture was used to inoculate a 20-200 mL culture, induced with 0.1 mM IPTG at an OD 600 nm >0,8 for initiation of recombinant protein translation then incubated at 18° C. and 250 RPM overnight. The cells were collected by centrifugation and the recombinant enzymes were extracted either as a crude extract or purified on a Ni-NTA agarose resin as previously described [Gonda I. et al., The Plant Journal (2013) 61, 458-472].
To determine the terpene synthase catalytic activity, reaction mixtures containing 100 μl of protein extract or purified protein were incubated overnight at 30° C. with either 10 μM geranyl diphosphate (GPP) or farnesyl diphosphate (FPP), in a final volume of 200 μl using a buffer containing 50 mM bis-tris, pH 6.9, 1 mM DTT, 10% (v/v) glycerol, 0.1 mM of MnCl2 and 10 mM of MgCl2. The volatiles produced were extracted by solid-phase microextraction (SPME) according to the methodology previously described [Iijima Y. et al., Plant Physiol (2004) 136: 3724-3736]. As controls, reactions were carried out without the cofactors MnCl2 and MgCl2, or protein extracts were heat inactivated by incubation at 100° C. for 5 minutes, or a short peptide product of an empty pET100 vector was utilized.
For solid-phase microextraction (SPME) analysis, a 57298-U SPME fiber assembly Divinylbenzene/Carboxen/Polydimethylsiloxane (DVB/CAR/PDMS, Supelco) needle size 23 ga, StableFlex, was used with an autosampler and analyzed by GC-MS as previously described [Davidovich-Rikanati R. et al., Nature Biotech (2007) 25:899-901; Davidovich-Rikanati R. et al., Plant J (2008) 56:228-238]. The SPME fiber were adsorbed for 30 min. by automatic HS-SPME at 50° C. followed by injection of the fiber into a GC-MS injection port for 5 min. (splitless), for desorption of the volatiles. Chiral separation was conducted on a Restek Rt™-bDEXsm column (30 m length 0.25 mm i.d., 0.25 μm film thickness, 2,3-di-O-methyl-6-O-tert-butyl dimethylsilyl beta cyclodextrin added into 14% cyanopropylphenyl/86% dimethyl polysiloxane). Helium (0.8 ml min-1) was used as a carrier gas with splitless injection. The injector temperature was 250° C., and the detector temperature was 230° C. The following conditions were used: initial temperature 40° C. for 5 min., followed by a ramp of 2° C./min. to 110° C., and 10° C./min up to 230° C. (5 min.). A quadrupole mass detector with electron ionization at 70 eV was used to acquire the MS data in the range of 41 to 350 m/z. The identification of the volatiles was assigned by comparison spectral data with the W10N11 and HPCH2205 GC-MS libraries and with authentic standard when available.

Assay [2] has as its system yeast cells. Description: Yeast growth (turbidity A600) in the presence of CBD. The settings on record: 0.5 mM CBD, 7-12 hours, FIG. 2. The format is cell-based, Saccharomyces cerevisiae (strain Y1HGold). As for the experimental part:
The genes were expressed in yeast and tobacco. For yeast, the ABC and PTR Transporter genes were synthesized by the TWIST Co, cloned and expressed (individually) in the yeast expression vector pESC-URA (Agilent Technologies) for expression under the yeast native gal-10 promoter. Competent Saccharomyces cerevisiae (strain Y1HGold, CloneTech) cells were prepared, transformed by each of the resulting vector and selected on yeast synthetic media lacking Uracil as previously described [GietzR. D., Methods Mol. Biol. (2014) 1205:1-12].
An alternative method is to measure the yeast growth as a function of turbidity. Transformed yeast cells were grown on URA-glucose broth at 30° C. at 200 RPM, and after 24 hours 100 μl was used to inoculate 5 ml of URA-galactose broth in the same conditions till O.D.600 of 1.5. The yeast was further diluted to OD600=0.05 with 10 ml URA-galactose, and divided into two 5 ml aliquots into separate 50 ml falcon tubes. The first falcon (control) was added 78 μl acetonitrile (the solvent that the CBD was dissolved in), and the second one was added 78 μl CBD solution in acetonitrile (final CBD concentration=0.5 mM). […]

B1: 796-3: Cannabis terpene synthase gene product, amino acid SEQ ID NO: 23 (protein)
chain: MDTQRKLQAEQLSCPTKSHELIFDHKSDHQRRSANYTPTIWKYDFLESLNNKYDSEEYKKRSEKLIEDVRHNIVETKDLKGMLELINTIRKLSLTYHFEDEVKKVLDKISSSNYYYNNKDIKDPRLVGDDLYLAALYFRLLRLHGYQVSQDIFVGYNSVDYKKGGGTHNITSTEVKVMIELLEASHVAFECEDTLTEAKALMEENLKIAFPDNCNKYIPKHEVVHALELPSHWRVQWFDVKWQIEAYRQHGDPDTNTTTTTSLLVDLAKLNFNIIQATLQKDLRELSSWWKNVGLSEKLEFARDRLVESFMCTVGLAFQPEYKSLRKCLTKVVNFILIVDDVYDVYGSLEELRHFTNAVNRWDVRETEELPDCMKICFQALYHTTCEIASEIETKNGCKLVLPNLKGAWTDFCKSLLMEAEWYHKGYIPSLEEYLSNAWISSSGPLLLLHSYLAMPNQTNTASSLDISKDLVYNISLIIRLCNDLGTSAAEQERGDAASSIVCYMQETKSSEEEARKHIREMIRKTWKKINKTCFSTCGSSSLSLSFIDIALNTARVAHSLYQSGDAFSAQHTDYKTHILSLLVHPLIPNK
modifications: Terpene Synthase Gene Amino acid sequence of the 45 identified gene products
On to B1, for which the “Monoterpenes produced with GPP” value in assay [1] is on record as “geraniol”.

B2: 792-7: Cannabis terpene synthase gene product, amino acid SEQ ID NO: 12 (protein)
chain: MSPCEATIDEKRPNMPKFTPTIWGDYFMSSASNHHHSSLMETMENNNKESYEKIIEMKEQVKNKLLHGLHPLENPLETLEYIDDIQRLGLSYYFENEIEQNLEQFHNNYQNLIDFGDNNLYADALCFRLLRQQGYNIACDIFDKYKNEKGKFKESISSDIRGMLNLYEAAQMRVHGEKILDEALIFTTTHLESSVKTCQLSSPYLDLVKHALMHPIRKSLQRREARLYISLYHQLPSHEEILLTLAKLDFNLLQKLHQKELSYITRWWKEFDYKSKHSFIKDRIVECYFWVYGVFFEAETSQIRLIITKLIAILTIIDDAYDSFGTLEELEPFTQAIERWDICAIDTLPEYMKIFYMKLLEIYNEIEQFSKERSYCPSYAKKGVQSLIRAYFKEAKWLHTKYIPTLDEYMPVGVDSAGSFMLISMVFIGMGDIVTKHSMDWIFSNPQPKIIQTMAIVGRVMNDIGYHKSERKKSSGEIVASTVECYMKQYGVTGEEAIEKLSEQVKDSWKDLNEDLLNPITIPRPLLMQVLKLVRVNHEIYREGDGFTQPTLLKNLIHSLIINPIDF
modifications: Terpene Synthase Gene Amino acid sequence of the 45 identified gene products
As for B2, in assay [1], the “Monoterpenes produced with GPP” value is on record as “beta-myrcene/geraniol”.

B3: T-AG2575-2: Cannabis ABC-G transporter gene product, amino acid SEQ ID NO: 56 (protein)
chain: MEVGDLYRAGNSLRNISLRSSTSSVWRGNNNNNNNKDEYFSKSRREDDINDEEALTWAALEKLPTYDRLRKGILTTSKGETTEVDVINLGFKQRKDLLQRLVNVADEDNESFLLKLKQRIQTVGIDLPTIEVRFENVKVEADVHVGSRALPSFINFCINIIEMLVSFLPILKSKKKHVTILDDVSGAIKPGRLTLLLGPPSSGKTTLLLTLAGKLASELKFSGRVTYNGHEMNEFIPQRTAAYISQHDVHIGEMTVRETLSFSARCQGVGTRYEMLAELSRREKEANIKPDPDIDIFMKATSTEGQKSSVVTDYVLKILGLEVCADTVVGDEMLRGISGGQRKRVTTGEMLVGPSGVLFMDEISTGLDSSTTYQIVNSLKQYVHIFNGTNVISLLQPAPETYDLFDDIILLSDGHIVYQGPRENVLEFFEFTGFKCPERKAIADFLQEVTSKKDQAQYWTRGDEAYRFVSAKEFVEAFKSFHVGQKIREYLSTPFDKTKSHPAALTTKNFGLNKMELLKACMSREYLIMKRNSFVHIFKIVQLSVMGLIHGTLFLRTKMHHRTLEDGTIYLGSLFFAALMIMFNGMSEIPMTIAKLPVFYKQRDLQFFPAWAYAVPSMLFKVPIAFLEVAVWIILTYYTTGLEPSVVRMFRLYFILVIVNQMASGLFRSIAALSRNMIIANTFGAFSLLLLFVLGGFVLSRDDINSGWIWAYWVTPLMYGQTGILVNEFRGSKWNKVTPNSTETLGIQVLKSKGFFTDSYWYWLGFGVLVAYTVLFNILYTLALNYLNSIEKSQALSNEDPENNDHEIQVGRETRTNEIQQTSSINNTGENQSKKKGMILPFEPHSITFNDVIYSVDMPQAMKNQGVVEDKLVLLKGVSGSFRPGVLTALMGISGAGKTTLMDVLAGRKTGGYIEGDIRISGYPKKQETFARISGYCEQNDIHSPHVTVYESLLYSAWLRLPTEVDSEKRKMFIEEVMELVELTPLRQALVGLPGVSGLSTEQRKRLTIAVELVANPSIIFMDEPTSGLDARAAAIVMRTVRNTVDTGRTVVCTIHQPSIDIFEAFDELFLMKRGGEEIYVGPLGRHSCHLINYFEAIEGVSKIKNGYNPGTWMLEVSSSAQEIALGVDFANIYKNSELCKRNKDLIKELSSPAPGSKDLYFPTQFSRSLNTQCIACLWKQRQSYWRNPLYTAVRFMFTTFIALIFGTVFWDLGSKRSNIQDLSNALGSMYCAVLFIGIQNASSVQPVVSVERSVFYREKAAGMYSAFPYSFGQLVVEIPYILCQSVVYCLIVYAMIGFEWTAIKFFWFLFFSFFSMLYFTFYGMMAVGITPNNHIASIVSSAFYSVWNLFSGFIIPRTRMPVWWKWYYWGCPVSWTLYGLLVSQYGDVDDVINAVTGETVKQYLRSYLGYKHDFIGVVAVVNVLFALLFGSIFAFSVKILNFQNR
modifications: ABC+PTR Transporter amino acid sequence (of the 12 identified gene products)
On to B3, for which the “inhibition of yeast growth in response to CBD, transporter-expressing yeast vs control yeast” value in assay [2] was “reduced inhibition of growth”.

B4: 795-1: Cannabis terpene synthase gene product, amino acid SEQ ID NO: 18 (protein)
chain: MITGVISSSTTIFKEQPEAIVRRSGNYKPTLWDAHFFKSLQVIYTEESYGKRINELKEDVRRILEKEAENPLVKLEQINDLSRLGISYHFEDQIKTILNLTFNNNNALWKKDNLYATALHFKLLRQYGFNPVSSEVFNAFKDQKKEFKESLSKDVKGMVCLYEASFYSFRGEPILDEARDFTTKHLKQYLMTRQCQTKSVDHDDDHDLVKLVEHALDLPLHWRLPRLEARWFIDMYAERNYDMNPTFLDFAKLDYNFVQSAYQKELKYISRWWSGSRLTERLPFARDRVVEIFYSAVALKYEAEFGFVRTVMTKIGLLLTLMDDIYDVYGTLDELQLFLGAIERWNINELDQLPDYMKILFVAFYNNVNEISYYVLKENGIHIIKYLKKALGDLCKCYMEEAKWFHSGHIPSLEEFIENGWKSITIPLCLIYHYCLITTSITEQDMEHLLQYPTILRVSGTVFRFIDDLGTSSDELERGDNPSSIQCYMREKGVSENESREHIWNLISEGWKEINEVKASNSPYSQVFIESAIDFVRGAMEMYHKGDGFGTNQDRYLKTKVVNMFFDPIPI
modifications: Terpene Synthase Gene Amino acid sequence of the 45 identified gene products
With B4, in assay [1], the “Monoterpenes produced with GPP” value is reported as “geraniol”.
